Reference: the Human Domainome abundance scans (Beltran et al. 2025)
± gives the uncertainty stated by the source.

B1: Lysine-specific demethylase 5C, residues 319 to 373; numbered along this chain, P41229 (parent)
chain: AQFIESYVCRMCSRGDEDDKLLLCDGCDDNYHIFCLLPPLPEIPKGVWRCPKCVM

Variants of: B1
Test: abundance fitness (aPCA) (normalised: wild type 0, dead -1); higher = more abundant; growth selection in yeast, the domain comes from the species named
Details: Homo sapiens

Variant | abundance fitness
D29G | -0.077 ± 0.21
P39G | -0.217 ± 0.12
P39W | -0.752 ± 0.27
P39V | -0.129 ± 0.11
P39T | -0.599 ± 0.17
P39Q | -0.276 ± 0.16
P39S | 0.078 ± 0.1
P39N | -0.045 ± 0.17
P39R | -0.164 ± 0.12
P39E | -0.025 ± 0.16
P39D | -0.233 ± 0.18
P39M | -0.292 ± 0.18
P39L | -0.473 ± 0.14
P39A | -0.018 ± 0.11
P39K | 0.148 ± 0.17
P39Y | -0.59 ± 0.21
P39C | -0.264 ± 0.15
P39I | -0.076 ± 0.19
P39F | -0.667 ± 0.29
P39H | -0.787 ± 0.3
F34R | 0.067 ± 0.11
F34Q | -0.053 ± 0.21
F34M | -0.165 ± 0.18
F34L | -0.157 ± 0.11

Variant | abundance fitness
F34P | -0.291 ± 0.15
F34D | -0.149 ± 0.17
F34T | 0.039 ± 0.14
F34G | 0.046 ± 0.11
F34A | -0.162 ± 0.1
F34N | 0.095 ± 0.23
F34W | -0.087 ± 0.15
F34V | -0.078 ± 0.1
F34Y | 0.191 ± 0.16
F34S | -0.029 ± 0.11
F34H | -0.135 ± 0.18
F34E | 0.021 ± 0.13
F34K | 0.28 ± 0.13
L23Y | -0.141 ± 0.24
L23R | 0.166 ± 0.065
L23Q | -0.073 ± 0.14
L23P | -0.017 ± 0.13
L23N | 0.099 ± 0.11
L23M | 0.235 ± 0.085
L23T | 0.094 ± 0.082
L23S | 0.148 ± 0.084
L23W | -0.224 ± 0.12
L37A | -0.02 ± 0.13
L37W | 0.182 ± 0.12

Variant | abundance fitness
L37Q | -0.108 ± 0.16
L37G | -0.134 ± 0.14
L37V | -0.083 ± 0.13
L37M | 0.054 ± 0.15
L37C | -0.137 ± 0.14
L37N | 0.172 ± 0.19
L37R | 0.092 ± 0.088
L37I | -0.043 ± 0.22
L37F | -0.193 ± 0.17
L37H | -0.023 ± 0.22
L37D | 0.122 ± 0.16
L37P | -0.076 ± 0.16
L37T | -0.03 ± 0.18
L37S | -0.012 ± 0.1
L37Y | -0.328 ± 0.15
L37K | 0.277 ± 0.15
L37E | -0.073 ± 0.14
P38A | -0.042 ± 0.12
P38F | -0.564 ± 0.16
P38G | -0.454 ± 0.13
P38M | -0.388 ± 0.15
P38L | -0.237 ± 0.086
P38W | -0.491 ± 0.16
P38Q | 0.178 ± 0.18

Variant | abundance fitness
P38N | 0.041 ± 0.2
P38T | -0.285 ± 0.2
P38R | -0.116 ± 0.11
P38C | -0.166 ± 0.13
P38Y | -0.416 ± 0.18
P38E | -0.191 ± 0.19
P38I | -0.62 ± 0.31
P38V | -0.1 ± 0.1
P38K | -0.283 ± 0.26
P38D | -0.35 ± 0.2
P38H | -0.12 ± 0.17
C35R | -0.41 ± 0.12
C35Y | -0.786 ± 0.39
C35V | -1.17 ± 0.22
C35G | -0.9 ± 0.21
C35A | -0.83 ± 0.15
C35S | -0.597 ± 0.12
C35W | -0.804 ± 0.27
C35F | -0.556 ± 0.24
C35K | -0.947 ± 0.34
C35N | -0.842 ± 0.43
C35Q | -1.03 ± 0.46
C35I | -1 ± 0.4
C35E | -0.794 ± 0.26

Variant | abundance fitness
C35P | -0.638 ± 0.29
C35H | -0.235 ± 0.24
P41L | 0.135 ± 0.1
P41W | -0.36 ± 0.13
P41E | -0.278 ± 0.19
P41V | -0.051 ± 0.13
P41R | 0.126 ± 0.083
P41T | -0.1 ± 0.2
P41F | -0.261 ± 0.15
P41H | -0.286 ± 0.23
P41Y | -0.244 ± 0.22
P41M | -0.55 ± 0.24
P41S | 0.047 ± 0.094
P41I | -0.134 ± 0.47
P41C | -0.185 ± 0.13
P41G | -0.078 ± 0.097
P41Q | -0.051 ± 0.21
P41A | -0.134 ± 0.13
P41N | -0.157 ± 0.23
P41K | -0.092 ± 0.23
H32G | -1.01 ± 0.19
H32S | -0.984 ± 0.17
H32E | -0.945 ± 0.21
H32Y | -0.972 ± 0.25

Variant | abundance fitness
H32M | -1.02 ± 0.16
H32A | -0.756 ± 0.17
H32T | -0.898 ± 0.21
H32K | -0.97 ± 0.23
H32P | -0.853 ± 0.23
H32F | -0.697 ± 0.22
H32C | -0.677 ± 0.16
H32W | -0.881 ± 0.18
H32Q | -0.756 ± 0.22
H32N | -0.672 ± 0.3
H32R | -0.675 ± 0.11
H32V | -0.723 ± 0.11
H32I | -0.859 ± 0.23
Y31D | -0.776 ± 0.18
Y31I | -0.261 ± 0.27
Y31M | -0.074 ± 0.24
Y31Q | -0.727 ± 0.14
Y31C | -0.514 ± 0.22
Y31R | -0.641 ± 0.11
Y31E | -0.538 ± 0.14
Y31N | -0.679 ± 0.28
Y31L | -0.589 ± 0.12
Y31V | -0.113 ± 0.079
Y31S | -0.93 ± 0.19

Variant | abundance fitness
Y31K | -0.702 ± 0.14
Y31T | -0.678 ± 0.16
Y31W | -0.364 ± 0.14
Y31F | -0.163 ± 0.14
Y31P | -0.776 ± 0.24
Y31A | -0.476 ± 0.095
N30D | -0.774 ± 0.23
N30P | -0.088 ± 0.11
N30I | 0.219 ± 0.18
N30E | -0.052 ± 0.12
N30M | -0.206 ± 0.13
N30C | 0.006 ± 0.12
N30L | -0.238 ± 0.092
N30F | -0.077 ± 0.18
N30W | -0.117 ± 0.11
N30Q | 0.157 ± 0.11
N30H | -0.176 ± 0.25
N30K | 0.098 ± 0.1
N30Y | -0.143 ± 0.15
N30S | -0.068 ± 0.089
N30G | 0.052 ± 0.073
N30R | 0.071 ± 0.075
N30V | 0.152 ± 0.081
